Measurements reported in article PMC1540706, “Role of the AP2 β-Appendage Hub in Recruiting Partners for Clathrin-Coated Vesicle Assembly” (PLoS Biology, 2006).

B1: human β2-appendage (700–937) used for ITC (domain or fragment, UniProt P63010 700-937, looked up)
chain: IGMAPGGYVAPKAVWLPAVKAKGLEISGTFTHRQGHIYMEMNFTNKALQHMTDFAIQFNKNSFGVIPSTPLAIHTPLMPNQSIDVSLPLNTLGPVMKMEPLNNLQVAVKNNIDVFYFSCLIPLNVLFVEDGKMERQVFLATWKDIPNENELQFQIKECHLNADTVSSKLQNNNVYTIAKRNVEGQDMLYQSLKLTNGIWILAELRIQPGNPNYTLSLKCRAPEVSQYIYQVYDSILKN
notes: AP2 β2-adaptin appendage domain, human, residues 700-937; also called wild-type β2-appendage; β-appendage
B2: 6× His human Eps15-MD (530–791) (domain or fragment, UniProt P42566 530-791, looked up)
chain: STSSSETANLNEHVEGQSNLESEPIHQESPARSSPELLPSGVTDENEVTTAVTEKVCSELDNNRHSKEEDPFNVDSSSLTGPVADTNLDFFQSDPFVGSDPFKDDPFGKIDPFGGDPFKGSDPFASDCFFRQSTDPFATSSTDPFSAANNSSITSVETLKHNDPFAPGGTVVAASDSATDPFASVFGNESFGGGFADFSTLSKVNNEDPFRSATSSSVSNVVITKNVFEETSVKSEDEPPALPPKIGTPTRPCPLPPGKRSI
notes: Eps15 motif domain, human, residues 530-791 (STSSSE…GKRSI); The His-tagged form is named for SPR; also called 6× His hEps15-MD; motif domain of Eps15; source: recombinant (pET28c), purified

Legend:
Experiment in all cases: ITC; VP-ITC; 100 mM HEPES, 50 mM NaCl, 2 mM DTT pH 7.4 at 10 °C; peptides or proteins injected from the syringe into the cell
Settings in all cases: both partners purified
[1] = biological target: B2
[2] = biological target: B1
[3] = biological target: T1, human β2-appendage (700–937) R879A used for ITC (human, UniProt P63010 700-937, R879A)
T1 construct: AP2 β2-adaptin appendage domain, human, residues 700-937; also called R879A mutant of the β-appendage
T1 sequence (looked up): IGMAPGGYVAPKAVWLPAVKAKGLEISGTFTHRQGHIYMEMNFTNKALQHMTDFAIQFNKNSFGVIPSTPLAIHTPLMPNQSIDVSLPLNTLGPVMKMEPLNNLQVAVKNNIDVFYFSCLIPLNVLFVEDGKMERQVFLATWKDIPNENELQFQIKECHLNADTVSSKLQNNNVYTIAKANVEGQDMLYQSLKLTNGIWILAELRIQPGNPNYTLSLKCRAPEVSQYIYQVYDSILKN

Question: How did the Kd [1] turn out when B1 was run?
Answer: Its Kd is ~20 µM.

Question: With B2 as the binder, how does the “stoichiometry N” value [2] read?
Answer: The value was 2.

B3: β-arrestin P-long peptide (peptide)
peptide: DDDIVFEDFARQRLKGMKDD
notes: peptide from the C-terminus of β-arrestin; also called β-arrestin peptide; arrestin peptide; source: synthetic peptide, bought: Institute of Biomolecular Sciences (University of Southampton)
Question: How did the “fold stronger than with the wild-type appendage” value [3] turn out when B3 was run?
Answer: Its value is 10 fold.

Question: What about the Kd [2] of the same binder?
Answer: Its Kd is ~2 µM.

B4: Eps15 P-short peptide (peptide)
peptide: SFGDGFADFSTL
notes: peptide from Eps15; also called Eps15 peptide; source: synthetic peptide, bought: Institute of Biomolecular Sciences (University of Southampton)
Question: How did the Kd [2] turn out when B4 was run?
Answer: The Kd was 46 µM.
